Laboratory results from PMC4419512.

Assays:
[1] = molecular target: HIV-1 RF envelope glycoprotein (Env) on virus (HIV-1 (RF)) (UniProt P04579)
[2] = molecular target: HIV-1 subtype A Q168.a2 envelope (Env) on pseudovirus (HIV-1 subtype A)
[3] = molecular target: HIV-1 subtype A Q23.7 envelope (Env) on pseudovirus (HIV-1 subtype A)
[4] = molecular target: HIV-1 subtype B CAAN5342.A2 envelope (Env) on pseudovirus (HIV-1 subtype B)
[5] = molecular target: HIV-1 subtype B JR-FL envelope (Env) on pseudovirus (HIV-1 subtype B) (UniProt Q75760)
[6] = molecular target: HIV-1 subtype B PVO.4 envelope (Env) on pseudovirus (HIV-1 subtype B)
[7] = molecular target: HIV-1 subtype B QH0692.42 envelope (Env) on pseudovirus (HIV-1 subtype B)
[8] = molecular target: HIV-1 subtype C CAP206.8 envelope (Env) on pseudovirus (HIV-1 subtype C)
[9] = molecular target: HIV-1 subtype C COT6.15 envelope (Env) on pseudovirus (HIV-1 subtype C)
[10] = molecular target: HIV-1 subtype C DU151.2 envelope (Env) on pseudovirus (HIV-1 subtype C)
[11] = molecular target: HIV-1 subtype C Du156.12 envelope (Env) on pseudovirus (HIV-1 subtype C)
[12] = molecular target: HIV-1 subtype C Du179.14 envelope (Env) on pseudovirus (HIV-1 subtype C)
[13] = molecular target: monomeric, glycosylated, baculovirus-produced HIV-1 IIIB gp120 (HIV-1 (IIIB)); assay: ITC; lectin (180 μM) in the syringe, gp120 (2.5 μM) in the cell; 55 injections of 5 μl, 600 s spacing, 300 rpm, 30°C; VP-ITC

Row | Substance | Anti-HIV EC50: concentration at which 50% of CEM-SS cells are protected from the cytopathic effects of HIV-1RF infection (XTT assay) [1] | IC50 of neutralisation, single cycle Tzm-bl pseudovirus assay [2] | IC50 of neutralisation, single cycle Tzm-bl pseudovirus assay [3] | IC50 of neutralisation, single cycle Tzm-bl pseudovirus assay [4] | IC50 of neutralisation, single cycle Tzm-bl pseudovirus assay [5] | IC50 of neutralisation, single cycle Tzm-bl pseudovirus assay [6] | IC50 of neutralisation, single cycle Tzm-bl pseudovirus assay [7] | IC50 of neutralisation, single cycle Tzm-bl pseudovirus assay [8] | IC50 of neutralisation, single cycle Tzm-bl pseudovirus assay [9] | IC50 of neutralisation, single cycle Tzm-bl pseudovirus assay [10] | IC50 of neutralisation, single cycle Tzm-bl pseudovirus assay [11] | IC50 of neutralisation, single cycle Tzm-bl pseudovirus assay [12] | Kd [13] | dH [13]
1 | 4mGRFT, tandem repeat of four mGRFT (1GS-S) domains joined by Gly-Thr-Gly linkers (designed binder) | 0.0012 nM | 0.273 nM | 0.276 nM | 0.232 nM | 0.287 nM | 0.185 nM | 0.17 nM | 0.164 nM | 0.273 nM | 0.3 nM | 0.0887 nM | 0.0934 nM | – | –
2 | 3mGRFT, tandem repeat of three mGRFT (1GS-S) domains joined by Gly-Thr-Gly linkers (designed binder) | 0.001 nM | 0.331 nM | 0.432 nM | 0.326 nM | 0.325 nM | 0.27 nM | 0.223 nM | 0.181 nM | 0.412 nM | 0.308 nM | 0.0794 nM | 0.124 nM | 3 nM | -74.4 kcal/mol
3 | 2mGRFT3, tandem repeat of two mGRFT (1GS-S) domains joined by a (Gly-Thr-Gly)3 linker (designed binder) | 0.0026 nM | 5.28 nM | 7.16 nM | 16.9 nM | 5.77 nM | 0.558 nM | 0.513 nM | 0.696 nM | 2.54 nM | 1.7 nM | 0.0616 nM | 0.144 nM | 3 nM | -47.2 kcal/mol
4 | 2mGRFT, tandem repeat of two mGRFT (1GS-S) domains joined by a Gly-Thr-Gly linker (designed binder) | 0.0027 nM | 1.55 nM | 7.26 nM | 5.27 nM | 2.09 nM | 0.301 nM | 0.202 nM | 0.178 nM | 1.46 nM | 0.694 nM | 0.0182 nM | 0.158 nM | 5 nM | -69.6 kcal/mol
5 | griffithsin (GRFT), native domain-swapped homodimer (from UniProt P84801 1-121) (natural protein) | 0.0138 nM | 3.8 nM | 1.19 nM | 7.34 nM | 0.922 nM | 0.037 nM | 0.0473 nM | 2.14 nM | 0.734 nM | 1.49 nM | 0.0324 nM | 0.606 nM | 8 nM | -30.4 kcal/mol
6 | monomeric griffithsin mGRFT (1GS-S) (from UniProt P84801 16-121) (natural protein) | 119 nM | – | – | – | – | – | – | – | – | – | – | – | 112 nM | -35.5 kcal/mol
